Common to all, as to assay: BLI
In general terms: Biolayer interferometry detects binding as a change in optical thickness at a sensor tip.

Assay [1] has as its target CXCL8_HUMAN (human, UniProt P10145 28-99).
The target of assay [2] is CXCL3_HUMAN.
The target in assay [3] is CXCL1_HUMAN.
Assay [4] addresses CCL23_HUMAN.
For assay [5], the target named is CCL24_HUMAN.
Assay [6] deals with CCL27_HUMAN.
Assay [7] addresses CCL3L1_HUMAN.
For assay [8], the target named is CCL4L1_HUMAN.
In assay [9] the target is CCL16_HUMAN.
Assay [10] has as its target CCL13_HUMAN.
In assay [11] the target is CCL14_HUMAN.
Assay [12] concerns the target CCL7_HUMAN.
For assay [13], the target named is T1, CCL22_HUMAN (human, UniProt O00626 25-93).
T1 chain: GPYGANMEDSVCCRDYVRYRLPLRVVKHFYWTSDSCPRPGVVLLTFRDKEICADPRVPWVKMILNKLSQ

Assay [14] concerns the target T2, CCL15_HUMAN (human, UniProt Q16663 22-113).
T2 chain: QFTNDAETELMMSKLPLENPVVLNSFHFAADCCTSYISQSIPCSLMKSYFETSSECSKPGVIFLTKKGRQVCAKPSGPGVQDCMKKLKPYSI

Assay [15] deals with T3, CCL4 (human, UniProt P13236 24-92).
T3 chain: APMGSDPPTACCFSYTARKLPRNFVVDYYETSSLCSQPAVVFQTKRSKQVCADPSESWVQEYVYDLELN

Assay [16] addresses T4, CCL5_HUMAN (human, UniProt P13501 24-91).
T4 chain: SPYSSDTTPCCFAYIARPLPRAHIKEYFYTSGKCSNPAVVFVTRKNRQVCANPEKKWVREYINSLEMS

The target in assay [17] is T5, CCL18_HUMAN (human, UniProt P55774 21-89).
T5 chain: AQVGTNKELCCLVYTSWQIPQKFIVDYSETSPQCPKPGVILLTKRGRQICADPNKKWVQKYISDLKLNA

Assay [18] addresses T6, CCL3_HUMAN (human, UniProt P10147 24-92).
T6 chain: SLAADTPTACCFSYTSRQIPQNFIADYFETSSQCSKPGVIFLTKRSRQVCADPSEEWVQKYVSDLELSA

For assay [19], the target named is T7, CCL17_HUMAN (human, UniProt Q92583 24-94).
T7 chain: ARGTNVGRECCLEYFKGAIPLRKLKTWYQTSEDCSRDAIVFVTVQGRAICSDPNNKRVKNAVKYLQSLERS

The target of assay [20] is T8, CCL8_HUMAN (human, UniProt P80075 24-99).
T8 chain: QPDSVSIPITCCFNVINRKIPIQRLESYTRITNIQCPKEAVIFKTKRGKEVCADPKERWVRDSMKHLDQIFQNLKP

Assay [21] has as its target T9, CCL19_HUMAN (human, UniProt Q99731 22-98).
T9 chain: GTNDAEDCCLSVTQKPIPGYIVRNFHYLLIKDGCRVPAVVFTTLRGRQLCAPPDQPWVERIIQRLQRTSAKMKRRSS

Assay [22] has as its target CCL2_HUMAN (human, UniProt P13500 24-99).
Assay [23] addresses CCL11_HUMAN (human, UniProt P51671 24-97).
The target of assay [24] is CCL21_HUMAN.
The target of assay [25] is T10, CCL1_HUMAN (human, UniProt P22362 24-96).
T10 chain: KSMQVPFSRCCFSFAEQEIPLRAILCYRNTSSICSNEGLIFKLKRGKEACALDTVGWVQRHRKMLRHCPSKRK

Assay [26] has as its target CCL20_HUMAN (human, UniProt P78556 27-96).
The target in assay [27] is CXCL1_HUMAN. This is another data set of the same source.
The target of assay [28] is CXCL3_HUMAN. The source holds these as a separate data set.

Chain of CCL11_HUMAN (P51671 24-97): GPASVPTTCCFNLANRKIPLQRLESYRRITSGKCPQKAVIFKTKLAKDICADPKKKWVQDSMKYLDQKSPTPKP
Chain of CCL20_HUMAN (P78556 27-96): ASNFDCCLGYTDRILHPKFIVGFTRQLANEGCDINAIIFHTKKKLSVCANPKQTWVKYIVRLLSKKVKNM
Chain of CCL2_HUMAN (P13500 24-99): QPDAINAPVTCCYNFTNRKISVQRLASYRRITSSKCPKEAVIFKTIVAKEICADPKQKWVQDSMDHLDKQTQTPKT
Chain of CXCL8_HUMAN (P10145 28-99): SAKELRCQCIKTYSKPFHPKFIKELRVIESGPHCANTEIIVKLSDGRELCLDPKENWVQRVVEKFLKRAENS

B1: P1156_IXORI (other)
chain: ADDDNELFTVQYCGMNCTKDEGGTWTGCTGKKEGCKCYHESGKNYGLCLSTEYTDFSQYGNPSDSEIEAAKPKRSDTLSH
In the case of B1, the dissociation constant Kd (commonly the concentration at which binding is half-saturated) in assay [1] was 4.6 nM; in assay [2] it was 81 nM; in assay [3], 3.25 nM.

B2: P991_AMBCA (other)
chain: ENGEGTTQPDYDNSTDYYNYEDFKCTCPAPHLNNTNGTVMKPIGCYYTCNVTRCTAPDTYPCYNLTEHQAKNLTTSPTTLCAVGNCDHGICVPNGTKELCFKAPNLEE
Regarding B2, the Kd worked out at 5.58 nM in assay [4]; 6.54 nM in assay [5]; 38.9 nM in [6]; 1.4 nM in assay [7]; 0.827 nM in assay [8]; 1.28 nM in assay [9]. For the same molecule, the dissociation constant Kd in assay [10] was 0.419 nM; in assay [11], 0.43 nM; in assay [12] it was 0.514 nM; in assay [13], 3.97 nM; in assay [14], 159 nM; in [15], 5.82 nM. In addition, the dissociation constant (Kd) in assay [16] was found to be 1.47 nM; in [17] it was 0.209 nM; in [18] it was 1.08 nM; in assay [19], 7.66 nM; in [20], 8.79 nM; in [21], 14.4 nM. Also, the values for the dissociation constant Kd in assay [22] and in assay [23] were 12.2 nM and 3.43 nM, respectively.

B3: P1243_AMBAM (other)
chain: RNHTEDNSTEYYDYEEARCACPARHLNNTNGTVLKLLGCHYFCNGTLCTAPDGYPCYNLTAQQVRTLTTYPNTSCAVGVCMKGTCVKNGTMEQCFKTP
On to B3, for which the Kd worked out at 6.62 nM in assay [4]; 7.39 nM in assay [5]; 15.1 nM in [6]; 6.54 nM in [24]; 9.61 nM in assay [7]; 35.4 nM in assay [8]. Moreover, the equilibrium dissociation constant (Kd) was 0.926 nM in [9]; 0.788 nM in assay [10]; 0.816 nM in [11]; 8.66 nM in assay [12]; 22.3 nM in [13]; 5.05 nM in assay [14]. Besides, the dissociation constant Kd worked out at 21.3 nM in [25]; 15.3 nM in assay [15]; 1.74 nM in [16]; 0.00501 nM in assay [17]; 5.3 nM in [18]; 0.734 nM in assay [19]. The dissociation constant Kd in [20] was 21.9 nM; in [21], 0.592 nM; in assay [23] it was 6.03 nM; in assay [26], 8.34 nM.

B4: P943_IXORI (other)
chain: RSKQPTASQSSKNSIKAEFCDTNCTQGTNGAWSGCSEGCFCVHVGNNTKGRCMKLSSDYDYTTQ
For the molecule B4, the dissociation constant Kd in assay [27] worked out at 24 nM; in assay [28] it was 270 nM.

Values taken from patent US20220175942A1 (published 2022).
